This note sets out measurements from the DeepSol protein solubility set.

This data set in a line: soluble on expression in E. coli; label from the status in PepcDB or PDB records.
In the case of “MSLARQVTAFNTGWQFKKGPFATDPMRAASQWDGKWETVEIPHTWNAMDMQVQSGSFYEGAGYYRKTQFFPHDLEGKRVFLRFEGVGACAEVYVNGKLAGTHKGGYSAFACEIGTALKLGAENEIIVKADNKARPDVIPVNQNLFGVYGGIYRPVWLIVTEQNNITVTDCASPGVYITQKDVSKKSADITVKVKLDNAGLQPAAVTLENTIYTQEGQKVGTHSRSFDLSPQGTQTYLSTFKLKNPHLWQGRKDPYLYKVVCRLMADGKVIDEVVQPLGVRKYEIVAGKGFFLNGEKYSMYGVTRHQDWWGLGSALKNEHHDFDLAAIMDVGATTVRFAHYQQSDYLYSRCDTLGLIIWAEIPCVNRVTGYETENAQSQLRELIRQSFNHPSIYVWGLHNEVYQPHEYTAALTRSLHDLAKTEDPDRYTVSVNGYGHMDHPVNLNADIQGMNRYFGWYEKKIQDIKPWVEQLEKDYPYQKLMLTEYGADANLAHQTEYLGDALNWGKPFYPETFQTKTHEYQWSIIKDHPYIIASYLWNMFDFAVPMWTRGGVPARNMKGLITFDRKTKKDSYFWYKANWSEEPVLYLTQREGHHHHHH”, the “soluble on expression in E. coli” value is listed as “not soluble”.
As for “MSLARTNVMIAETFPEYLVDHNLIDCEVESLCNGMVRYEKRPARRRDGSVAEGLYNAWIIFNNPRQYNSYTTEMVKATILAFRRASVDREVNAVVFTGVGDKAFCTGGNTKEYAEYYAGNPQEYRQYMRLFNDMVSSILGCDRPVICRVNGMRIGGGQEIGMACDFSIAQDLAKFGQAGPKHGSAAIGGATDFLPIMIGCEQAMVSGTLCEPFSAHKAARLGIIADVVPALKVGGTFVANPTVVTDRFLDEYGRVVQGEFKTGADFKAGQARIKEGEVDLSLLDEKVEELCAKLLETFPECMTKSLEELRKPKLQAWNLNKENSRAWLALNMMNEARIGFRAFNEGTKETGREIDFVKLRRQLAEGTPWAEELIEEGHHHHHH”, the “soluble on expression in E. coli” value was “soluble”.
“MSLARVSGDAPAVSWETLDLHTAQPFGIARWTHSVYPRTFVTLTLDGRRGRGEAAPNAFYGETRGTVEAVLPLLAPALSDPWDWDGLHAALGARMPHDHPSVKCALEMAAVEWCAQAAGVPVWQLLGLSPTVLPESSYTVSLAPLPDMRRQAREAVGRGHRVLKVKLGTDQDEAILEALREEVPEVALRVDANAAWTRAQAKRMLGVLDAARVEFVEQPLAAGDLEGHAMLRGVSPVPIVADESLHHVGDVLALARAFDGVNLKLAKLGGPLQALRALRLARAHGMQVMMGCMIESSLGIAAAAHLAGLCDWADLDGALLLADDPYTGLDWTAGQLARPGGTGWGVTRRSEGHHHHHH”: the “soluble on expression in E. coli” value was “soluble”.
On to “MSLASGNTLTYGLVVPDISNPFFASMARALQREAFNHGRVLLLGDAGDDRQHEHDLINHLLRRQVDGLLYTSVDRHPWFDLIRNSGTPCVMIDTIDSHAGISAIRVNERDAACQATRHLLQHGYRELGIFVGPLTMLNAQDRLNGWRDALIEAGITPREEWIFEAPYTRKGGYQASQKMLQGPCPRAIFTSNEQQALGCLSALAEHQLRVPDDLAIICFNGTQQSEFSVPPLSAVEQPIDAMARQAIAMLATGTAQPELHEFAFQLHIRRSEGHHHHHH”, for which the “soluble on expression in E. coli” value is on record as “soluble”.
“MSLAVERLFGTNGIRGIPNDDMSPDFAMSVGKAIGTYVSGEIAFGTDTRLTGDMIKNAVIAGILSTGISVIDLGVLPTPAIQYYSKKHGIYAVVITASHNPPQYNGIKVIDKDGTELERPGEEKIEEIFYSKAFRVVKWENIGRIRQVSDAIDIYINGVISNVDSDNIKSHAFKVLADAGNGAAYYSTPKLLEKLGCSITTLNANPDGRFTARNAEPVPENLVNLISLMKSGRFDLGIAHDGDADRAVFIDEKGNFIDGDRMLALITKYIAKAGDVVVTPVSSSDTIADICNAIGAKLIRTKVGAPIVARAMIDNGATIGGEENGGVIYGKHQYCRDGAMTVSLVLNLMASTNKKLSELISELPVYYLIKKKVERRVDWPSLARELKKGERVDETDGIKILKDDGWILIRPSGTEKILRIYAHSSDFELANKYCEQYIRKVNDIQDKLSEGHHHHHH”: the “soluble on expression in E. coli” value is “not soluble”.
Then “MSLCDYLERSAKKFPEKVAVQGVRLGHIEAITYAELNTFSDRFSEFLRAQGVTRGEFIPFFMFKEIDSIKSIFSILKADCAYVPLDCKSPEGRLLSIIKSCKAKFIIVNERSESLAERVFSAIPTLKIINISEFVSDTAFVFSASLNISVDLAYVLFTSGSTGTPKGVMISHQAIIDYIGWCTETYNITAIDHVSNHAPLYFDNSTFDIYTSMAAGATLHLVPEEFNVMLPRLIDWIEDNRISIFFCVPSILTLMLQTGRLRTERFVELKHLICAGEVLPTTTAKKILGLFPHLQLTNMYGPTEITVDCTYHVIREADVTSSTSIPIGKPRRNMQLMVLTDDGAVTNERGAIGELMVRGSSVSYGYLDNYAKTQEAFVQNPAHSLYPDMVYKTGDRVTIGEEGLYYYCGRLDNQIKHLGYRIELGEIEANALLLDTVLEAVAVYRSSTSMFESAICMAVKTTVPTDVRTLRAALTSVLPPYMIPGHFVFLDSDFPRTPNGKYDRASILGLFVEGHHHHHH”, with “not soluble”; and “MSLDFSHEFFGSLDPQALAHPDSIKWQHYGEGVIPMWIADMDFPVAPPILRALEDRLTRGLGYPLGRDDRLIADLQTKWASQGLTDVPADGIHFTPSVVPGLYAGVHGLTEPGDRVVTMTPIYHPFHLAINDLGREVAAAPLREGDTRWEIDWDALERAAEGARLLMLCHPHNPCGRVWDADELARLRELVLAHDLYVISDELHADLRFTDAPFEAFAADPRVRDRTLTVTGPCKAFNTAGLGIGVMVTHDPELLARVQRRVAGLGGHPSALSFTMWRVALEDGGPWLARTVEYLRGNRDFMTAFLRERLPWVRFTVPEATYLAWLDLREHPEAGRIQEFLLEEAKVAVHNGPTFAPGEQGAAYQGFIRVNFATSRAILTEALERMARALDTRQEGHHHHHH”, with “not soluble”.
With “MSLDIAVVGIGYVGLVSATCFAELGANVRCIDTDRNKIEQLNSGTIPIYEPGLEKMIARNVKAGRLRFGTEIEQAVPEADIIFIAVGTPAGEDGSADMSYVLDAARSIGRAMSRYILIVTKSTVPVGSYRLIRKAIQEELDKREVLIDFDIASNPEFLKEGNAIDDFMKPDRVVVGVDSDRARELITSLYKPMLLNNFRVLFMDIASAEMTKYAANAMLATRISFMNDVANLCERVGADVSMVRLGIGSDSRIGSKFLYPGCGYGGSCFPKDVKALIRTAEDNGYRMEVLEAVERVNEKQKSILFDKFSTYYKGNVQGRCVAIWGLSFKPGTDDMREAPSLVLIEKLLEVGCRVRVYDPVAMKEAQKRLGDKVEYTTDMYDAVRGAEALFHVTEWKEFRMPDWSALSQAMAASLVIDGRNVYELPADSDFTLLNIGNSAIESEGHHHHHH”, the “soluble on expression in E. coli” value is “soluble”.
On to “MSLDIHEGNLMPAKRKLTMRHIRQMLRLAGSGTSSREIAVMLGIARSTVQDNLKRAAMAGLSWALASGLTDDVLEAKLFVHPGVKRGQRLRQEPDWGPLSIELKKPGVTLLILWEEYRSAHPDGYGYSRFCELFRGFEKRLSPTMRQEHIAGDKVFVDYSGKKVPIVDRKTGEIREAELFLGVLGASSYCTRGRSVHLGELLRRAWIFQHLGNREGHHHHHH”, for which the “soluble on expression in E. coli” value is reported as “soluble”.
“MSLDKNRTMLLIVDINKGFAKEGALYSDRIEKLISPISNLANYALNSGIRVKAFTDYHTEDSIELKAYPKHCMKDTDEWELVDELNLEGIEVIKKNSTNGFLEENFILNKEEIDNVIIVGDCTDICIYQLAISLRAEFNRVNKDGEIYVPKKLVDTFDMPMHKANFMNYVFLNSMLDNGVKVIEDIILDEGHHHHHH”: the “soluble on expression in E. coli” value is “not soluble”.
Then “MSLDKNSKSFGEANERIGNAIHHVCLNASDAKFIKSNIQESYQSWANVLYDRVFLNWGLCDKKIYRELSSLNFDFSTVGFFPHVYGQSLLFYLIRPLIKIHFFNKRLLDVGCGNGVGLKISSELLKTRYALGIDLVSKLVTNSNNSFYIEDKINYMQADAENMAIANESFDIVTNLESSHLYPQIEHFFSEVERVLAPNGFFCYADVHFDVKQQAQRLEAFVKTKKNLRIIEKHNITKMVQASIYQRLIVNEKGFYQLAQYLLGPDKIHYTSELANVASSMGLMFLPWWRIRFKNPALQALGKFARRCKHWNKKYYFYYLIQKIDSEGHHHHHH”, with “not soluble”.
Then “MSLDLFDRKAAADTLKEAPLAERMRPRTLAEYVGQEHLLGPGKLLRQLIETDQLTSLIFWGPPGSGKTTLARIIAGATKSHFIFFSAILSGIKEIREIVKEADDIRKFHGKRTILFVDEIHRFNKSQQDAFLPYVERGVFTIIGATTENPSFEVIAPLLSRCKVLVLNPLTEEEITGILRQALADKERGLGALDLAIEDDALTFMAEQAGGDARVALNTLETASRLTSNGVVSLDTAREAVQKKPLLYDKGGEEHYNVISAFIKSMRGSDPDGALYWLARMIEAGEDPIFILRRMVILASEDIGNADPRALQVAVTALQGFQLVGMPEGRIIIGQAVTYLATAPKSNASYVGIDAALAEVRKSGALPVPLHIRNAPTRLMKDLGYGTGYRYAHDYAEGYVAQDYLPDQIKGRKYYDPTGHGYEKSIKERMEWLKGKKEGHHHHHH”, with “soluble”.
As to “MSLDLNKYKDRIITLAKPYLNREFDFADVKLTLISGLGVEINGLRIADNPEFGSEDFLSLQSLRIKVALFPLLKKKIQIKKLIMDEPVVRLVRNSNGVFNFSDMASDAEEDEKPQAKDEKRKEKKSGSEKKPDSEHNIFLAGLMVSQFTLHSGQIHFLDNFVPDAPVTMVFDSLNIELKNVSLYKPIRIYASAGLQGTTEQNLLIKGMVGPVGDNMDLVGLAMDIHVSVQNVFLHKFVPYIPDGLMLSPLEGILYMTANIKGSVHSGLDLESVIQGEKLVMSIKDSDEKIQNVNITLKEKIKYDDRKGDIGFQQLDLALNDNNVSLTGTIENIKTDPQWDVTLMAKMNALDEALALYPVFKEALPQDFRFTGPLNMEITSSGSKDAMQISGHTDMTRAEILYGEVFKKQKNIPFQISLKANKIADIIQLEAFAVNLQNASLNSSGSIEDMVNPRFDLVSTANEFSLKGWDAIVPLLKEYEPEGSVSIKNYMKGNFDDAFVNLHVSSPKLLFKFPASSDKKEDENTKQRKDVAESIRFELLAKKLADNITADGGLEMGNGTILDINFEEAKGKYSFQDDILKIQSFQMRTFEGDISLTGNYDSKSMQWDASPIINAVRIDGVVDAFTQYRGMMKGVFSGSFDMGGSLGKNDKMVTNANGSFRLLQGEIENVNLMETIIDSLLGIKEVYKYAGEKKDVLEKYDVTRFDSLDGEFSLLNDMLDLKKCYLENIYTPDVPGSDAKLKGDINFDTGKLDLSGKVILSSEHSEKLTKKAKPLKALLNEKGNIVLPVTVTGTMSNPKPLLDTSYVLNAMMNYYGKEELEKGLDKLKGKLGLEKLGLEKLWQKDEGHHHHHH”, the “soluble on expression in E. coli” value was “not soluble”.
Turning to “MSLDLRKSKELTGIEAHINDNKKEESNVEYFEKLRSALLDGVNKGRSLLKHLPVTRIEGQSFRVDIIKFEDGVRVVKQEYKPIPLLKKKFYVGIRELNDGTYDVSIATKAGELLVKDEESLVIREILSTEGIKKMKLSSWDNPEEALNDLMNALQEASNASAGPFGLIINPKRYAKLLKIYEKSGKMLVEVLKEIFRGGIIVTLNIDENKVIIFANTPAVLDVVVGQDVTLQELGPEGDDVAFLVSEAIGIRIKNPEAIVVLEEGHHHHHH”, the “soluble on expression in E. coli” value is on record as “soluble”.
Take “MSLDNTEQEKFETYDLDVETVYCRPIIKFPLLLIHAYRVYLALNDHNDIEPRLHSDRLLEIFDPLINGDEQSVKLFIETLWQVRYQFDRWVVKWVERDDATDAQLGLTYQSRSKSNDTYYINRTQKELTDIVLLQSVRNFTGERSAQYWLTPFLSGLIRSSIKQDSVALELLENIDNKMSLSVDTQKEASFALAEGIEPNCQSWQSQSTYFAKSLGTSFEHYWFQKLEYLIWKKMKASESSLPSEELNKFKKYRITSKNSVEHVHPQNDEYNSRLDCETLNSFGNLVLLSPGENSSYSNQDVDKKRIDFERKSHFDALKLREIFGVKGQGLWGKQQIDNHLEDMMAVFAQHYKEGHHHHHH”: the “soluble on expression in E. coli” value is on record as “not soluble”.
